Numbering of substitutions follows the chain as printed. Each block holds one binder with its values, some of them ahead of it.
Assays:
[1] = biological target: rPcrV protein (recombinant Pseudomonas PcrV) (Pseudomonas aeruginosa); experiment: SPR on Bio-Rad ProteOn XPR36; antibody captured on GLC chip with anti-human IgG, rPcrV injected at multiple concentrations
[2] = biological target: rPcrV protein (recombinant Pseudomonas PcrV) (Pseudomonas aeruginosa); experiment: SPR on Bio-Rad ProteOn XPR36; antibody captured on GLC chip with anti-human IgG, rPcrV injected at multiple concentrations [table]
[3] = biological target: rPcrV protein (recombinant Pseudomonas PcrV) (Pseudomonas aeruginosa); experiment: Bio-Rad ProteOn XPR36; antibody captured by anti-human IgG on GLC chip, rPcrV injected

Kd [1]: 0.143 nM
koff [1]: 0.000116 s⁻¹
kon [1]: 808000 M⁻¹ s⁻¹
Kd [2]: 0.143 nM
koff [2]: 0.000116 s⁻¹
kon [2]: 808000 M⁻¹ s⁻¹
B1: V2L2-germlined mAb (V2L2-GL) (antibody, V domains shown)
VH: EVQLLESGGGLVQPGGSLRLSCAASGFTFSSYAMNWVRQAPGKGLEWVSAITISGITAYYTDSVKGRFTISRDNSKNTLYLQMNSLRAEDTAVYYCAKEEFLPGTHYYYGMDVWGQGTTVTVSS
VL: AIQMTQSPSSLSASVGDRVTITCRASQGIRNDLGWYQQKPGKAPKLVIYSASTLQSGVPSRFSGSGSGTDFTLSISSLQPDDFATYYCLQDYNYPWTFGQGTKVEIK

fold increase in Kd over V2L2-GL [3]: 2 to 3 fold
Kd [1]: 0.0456 nM
koff [1]: 4.03e-05 s⁻¹
kon [1]: 884000 M⁻¹ s⁻¹
Kd [2]: 0.046 nM
koff [2]: 4.03e-05 s⁻¹
kon [2]: 884000 M⁻¹ s⁻¹
B2: V2L2-MD (germlined lead optimized V2L2) (antibody, V domains shown)
VH: B1 VH with I53M, S63D
VL: B1 VL with V47L, S74T, D81E

Reference: patent US20150284450A1, “COMBINATION THERAPIES USING ANTI-PSEUDOMONAS PSL AND PCRV BINDING MOLECULES” (priority 2012, published 2015)
